Measured values as given in paper PMC3377065 (EMBO Molecular Medicine, 2011).
“And” between values parts separate entries of the source, which are not always exact repeats. Identical values can stand only once.

Target: the molecule itself
Assay: non-reducing SDS-PAGE and Western blot

Protein | stoichiometry N
human CMG2 C230A–C315A double mutant, V5-tagged (receptor) not shown | 2
human CMG2 C230A, V5-tagged (receptor) not shown | 3 and 4
human CMG2 C218A, V5-tagged (receptor) not shown | 2
human CMG2 C255A, V5-tagged (receptor) not shown | 3 and 4
human CMG2 C39A, V5-tagged (receptor) not shown | 2
human CMG2 C279A, V5-tagged (receptor) not shown | 3 and 4
human CMG2 C315A, V5-tagged (receptor) not shown | 3 and 4
